Assay [1] concerns the target human IGF1R-luciferase fusion protein (IGF1R-Luc) (human). In words: bridge assay: immobilized IGF1R-PGA14tag, antibody, IGF1R-Luc.
For assay [2] the target is unchanged. In words: bridge assay: immobilized IGF1R-PGA14tag, antibody at 3 ng/ml, IGF1R-Luc.
Assay [3] has the same target. Description: bridge assay: immobilized IGF1R-PGA14tag, antibody at 12 ng/ml, IGF1R-Luc.
Assay [4] has the same target. In words: bridge assay: immobilized IGF1R-PGA14tag, antibody at 49 ng/ml, IGF1R-Luc.
The target is the same in assay [5]. Description: bridge assay: immobilized IGF1R-PGA14tag, antibody at 0.2 ng/ml, IGF1R-Luc.
For assay [6] the target is unchanged. Description: bridge assay: immobilized IGF1R-PGA14tag, antibody at 0.8 ng/ml, IGF1R-Luc.
Assay [7] shares this target. Description: bridge assay: immobilized IGF1R-PGA14tag, antibody at 195 ng/ml, IGF1R-Luc.
The target is the same in assay [8]. Description: bridge assay: immobilized IGF1R-PGA14tag, antibody at 781 ng/ml, IGF1R-Luc.
Assay [9] shares this target. Description: bridge assay: immobilized IGF1R-PGA14tag, antibody at 0.05 ng/ml, IGF1R-Luc.
The target is the same in assay [10]. Description: bridge assay: immobilized IGF1R-PGA14tag, antibody at 3125 ng/ml, IGF1R-Luc.
The target is the same in assay [11]. In words: bridge assay: immobilized IGF1R-PGA14tag, antibody at 12500 ng/ml, IGF1R-Luc.
Assay [12] has the same target. In words: bridge assay: immobilized IGF1R-PGA14tag, antibody at 50000 ng/ml, IGF1R-Luc.

Data on one substance can be found in patent publication US20150301040A1.

human IGF1R-luciferase fusion protein (IGF1R-Luc) (human), sequence (chain, as listed by the source limits assumed): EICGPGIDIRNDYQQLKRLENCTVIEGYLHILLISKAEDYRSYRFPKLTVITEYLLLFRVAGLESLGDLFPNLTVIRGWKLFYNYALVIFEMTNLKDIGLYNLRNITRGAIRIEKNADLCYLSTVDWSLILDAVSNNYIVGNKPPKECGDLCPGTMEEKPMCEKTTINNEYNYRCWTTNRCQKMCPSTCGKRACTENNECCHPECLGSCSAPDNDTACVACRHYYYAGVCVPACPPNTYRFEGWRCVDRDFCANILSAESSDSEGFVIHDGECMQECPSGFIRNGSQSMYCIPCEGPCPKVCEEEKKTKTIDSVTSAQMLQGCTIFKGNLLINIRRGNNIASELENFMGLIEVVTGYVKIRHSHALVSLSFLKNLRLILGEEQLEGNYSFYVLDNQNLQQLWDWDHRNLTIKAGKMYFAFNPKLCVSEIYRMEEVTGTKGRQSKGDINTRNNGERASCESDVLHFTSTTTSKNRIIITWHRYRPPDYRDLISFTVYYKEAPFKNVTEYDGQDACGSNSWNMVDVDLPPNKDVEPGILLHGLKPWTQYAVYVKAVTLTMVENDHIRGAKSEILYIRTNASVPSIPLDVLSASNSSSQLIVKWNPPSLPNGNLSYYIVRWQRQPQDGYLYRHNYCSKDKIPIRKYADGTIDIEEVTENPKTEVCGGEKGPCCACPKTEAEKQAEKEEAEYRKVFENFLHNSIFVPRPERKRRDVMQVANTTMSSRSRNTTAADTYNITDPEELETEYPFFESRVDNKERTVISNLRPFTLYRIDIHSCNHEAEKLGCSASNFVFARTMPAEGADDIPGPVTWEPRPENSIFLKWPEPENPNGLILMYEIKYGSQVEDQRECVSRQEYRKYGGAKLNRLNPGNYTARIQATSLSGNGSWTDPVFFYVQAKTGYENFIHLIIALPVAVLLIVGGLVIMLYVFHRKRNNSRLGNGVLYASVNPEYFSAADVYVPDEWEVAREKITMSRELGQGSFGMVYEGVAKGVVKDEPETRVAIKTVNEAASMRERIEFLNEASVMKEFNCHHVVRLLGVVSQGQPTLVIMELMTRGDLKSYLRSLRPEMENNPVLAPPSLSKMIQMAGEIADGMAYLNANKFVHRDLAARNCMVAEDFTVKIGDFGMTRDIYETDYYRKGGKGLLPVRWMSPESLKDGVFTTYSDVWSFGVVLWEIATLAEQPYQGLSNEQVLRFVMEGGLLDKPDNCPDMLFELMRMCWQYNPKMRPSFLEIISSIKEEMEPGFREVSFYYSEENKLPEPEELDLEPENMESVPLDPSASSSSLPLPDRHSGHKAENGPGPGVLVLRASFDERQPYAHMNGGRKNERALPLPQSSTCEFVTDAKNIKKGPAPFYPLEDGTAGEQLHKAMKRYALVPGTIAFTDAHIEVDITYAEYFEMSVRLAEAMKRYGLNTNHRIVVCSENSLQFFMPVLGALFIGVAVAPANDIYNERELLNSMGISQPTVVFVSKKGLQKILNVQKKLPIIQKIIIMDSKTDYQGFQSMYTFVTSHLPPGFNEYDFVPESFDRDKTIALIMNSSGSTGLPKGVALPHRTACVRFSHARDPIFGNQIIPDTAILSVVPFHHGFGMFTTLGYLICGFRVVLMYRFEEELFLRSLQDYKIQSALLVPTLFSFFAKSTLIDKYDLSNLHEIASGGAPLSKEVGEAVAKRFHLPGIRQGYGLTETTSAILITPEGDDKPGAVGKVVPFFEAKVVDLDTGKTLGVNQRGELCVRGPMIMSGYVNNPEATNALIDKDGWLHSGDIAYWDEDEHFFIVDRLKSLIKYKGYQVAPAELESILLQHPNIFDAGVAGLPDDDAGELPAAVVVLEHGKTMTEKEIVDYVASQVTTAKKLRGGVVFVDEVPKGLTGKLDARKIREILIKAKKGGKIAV

Turning to “Monoclonal antibody to the extracellular domain of IGF1R (anti-IGF1R clone#24-75, Millipore, USA)”, in [1], the detection limit stood at 0.2 ng/mL. The RLU bound turned out to be 11800 RLU in [2]; 27000 RLU in assay [3]; 88900 RLU in assay [4]; 5900 RLU in assay [5]; 8860 RLU in assay [6]; 235000 RLU in assay [7]. In addition, the RLU bound in [8] turned out to be 476000 RLU; in assay [9], 5370 RLU; in assay [10] it was 627000 RLU; in assay [11] it was 767000 RLU; in assay [12], 805000 RLU.
